Paper PMC4235346

Assays:
Assay in all cases: fluorescence anisotropy
Details in all cases: 10 nM labelled DNA, 10 mM HEPES pH 7.0, 60 mM NaCl, 240 mM KCl, 25 C, anaerobic, 5 mM EDTA for apo or 1.2x (InrS) / 2.2x (ZiaR) metal …
[1] = system: InrS E98A (Synechocystis PCC 6803)
[2] = system: InrS (Synechocystis PCC 6803)
[3] = system: InrS E95A (Synechocystis PCC 6803)
[4] = system: ZiaR (Synechocystis PCC 6803)

| Substance | Kd ([1]; Ni(II), 1.2 molar excess) [nM] | Kd ([1]; apo, 5 mM EDTA) [nM] | Kd ([2]; Cu(I), 1.2 molar excess) [nM] | Kd ([2]; Cu(II), 1.2 molar excess) [nM] | Kd ([2]; Ni(II), 1.2 molar excess) [nM] | Kd ([2]; Zn(II), 1.2 molar excess) [nM] | Kd ([2]; apo, 5 mM EDTA) [nM] | Kd ([3]; Ni(II), 1.2 molar excess) [nM] | Kd ([3]; apo, 5 mM EDTA) [nM] | Kd ([4]; Zn(II), 2.2 molar excess, K1 (printed as >>)) [nM] | Kd ([4]; Zn(II), 2.2 molar excess, K2 (printed as >>)) [nM] | Kd ([4]; apo, 5 mM EDTA, K1 (first dimer)) [nM] | Kd ([4]; apo, 5 mM EDTA, K2 (second dimer)) [nM] |
| --- | --- | --- | --- | --- | --- | --- | --- | --- | --- | --- | --- | --- | --- |
| TCATCAATATCCCCCCTGGGGGCATAGAATAGA (double strand) [nrsDProFA (nrsD operator-promoter)] | 1300 | 21 | 3100 | 3600 | 2300 | 980 | 9.4 | 1400 | 22 |  |  |  |  |
| zia operator-promoter (zia o/p) |  |  |  |  |  |  |  |  |  | > 10000 | > 10000 | 22 | 530 |
